The target of assay [1] is CA125抗原 (Cancer Antigen 125) (human) (UniProt Q8WXI7). The assay is described as follows: SPR, Biacore T100, antigen coupled to chip, bispecific as analyte, 1:1 fit.
Assay [2] has the same target. The experiment in a line: SPR, Biacore T100, antigen coupled to chip, nanobody as analyte, 1:1 fit. Background: In SPR one partner is held on a chip, and binding of the other changes the refractive index at the surface.
Assay [3] shares this target. The assay is described as follows: SPR, Biacore T100, antigen on chip, 1:1 fit (repeats Table 1).
Assay [4] shares this target. The experiment in a line: SPR, Biacore, comparator nanobody listed in Table 1.

B1: 抗CA125双特异性纳米抗体 4A4-(G4S)4-6C1 (bispecific antibody)
chain: QVQLQESGGGLVQAGTSLTLSCAASERTFSAYDMNWYRQAPGKERELVAAISWRGPITYVADSVKGRFTISRDNAKNTVYLQMNSLKPEDTAIYYCNAEPGPGYVGSYALSYWGQGTQVTVSSGGGGSGGGGSGGGGSGGGGSQVQLQESGGGLVQAGGSLRLSCAASGSMFSINAMRWYRQAPGKQRELVAAITSGGSTNYADSVKGRFTISRDNAKNTMYLQMNSLKPEDTAVYYCNAAQTRLPNSADRYEYDYWGQGTQVTVSS
In general, Kd refers to the concentration at which binding is half-saturated. A low value points to higher affinity. With B1, the Kd in assay [1] is 0.0768 nM.

B2: 抗CA125纳米抗体4A4 (VHH)
VHH: QVQLQESGGGLVQAGTSLTLSCAASERTFSAYDMNWYRQAPGKERELVAAISWRGPITYVADSVKGRFTISRDNAKNTVYLQMNSLKPEDTAIYYCNAEPGPGYVGSYALSYWGQGTQVTVSS
B2: the Kd in assay [2] and in assay [3] was 3.59 nM in each case.

B3: VHH-CA125-4H10 (VHH, from another filing)
VHH: ESGGGLVQPGGSLRLSCAASEFTLEHYAIGWFRQAPGKEREGVGCISSSQENTYVEDSAKGRFTISRDNVKNTVYLQMNSLKPEDTAVYYCAARRFGLCVISPGYFEVWGQGT
B3 displayed a Kd in assay [4] of 0.285 nM. This counts as sub-nanomolar.

B4: VHH-CA125-2H7 (VHH, from another filing)
VHH: ESGGGLVQAGGSLRLSCERSDAPHSPYTMGWFRQAPGKDREFVATITWSGGTTLYADSVKGRFTISRGIAKNTAYLQMNTLKPEDTAVYYCAVGLGGGAYREDHQYDYWGQGT
Molecule B4 displayed a Kd in assay [4] of 0.718 nM.

B5: VHH-CA125-4C1 (VHH, from another filing)
VHH: ESGGGLVQAGGSLRLSCAASGNTFNINAMGWYRQAPGKQRELVATITSGGSTNYADSVKGRFTISRDNAKNTVFLQMNSLKPEDTAVYYCNAVQTRLPNSPDRYEYDYWGQGT
B5: the Kd in assay [4] worked out at 0.635 nM.

B6: 抗CA125纳米抗体6C1 (VHH)
VHH: QVQLQESGGGLVQAGGSLRLSCAASGSMFSINAMRWYRQAPGKQRELVAAITSGGSTNYADSVKGRFTISRDNAKNTMYLQMNSLKPEDTAVYYCNAAQTRLPNSADRYEYDYWGQGTQVTVSS
Consider B6, for which the dissociation constant Kd in assay [2] and in assay [3] was 0.198 nM each time.

Source of the values: CN114106184A.
